Columns and labels:
[1] = target: CD166 (activated leukocyte cell adhesion molecule, ALCAM) on human cells (human) (UniProt Q13740); assay: flow cytometry, CD3+ T cells, Control Treatment, cultured with ILT3Fc (50 ug/mL), stained with ILT3Fc-FITC
[2] = target: CD166 (activated leukocyte cell adhesion molecule, ALCAM) on human cells (human) (UniProt Q13740); assay: flow cytometry, ILT3Fc-FITC on H9 cells with CD166 knocked down by shRNA adeno-virus
[3] = target: CD166 (activated leukocyte cell adhesion molecule, ALCAM) on human cells (human) (UniProt Q13740); assay: flow cytometry, Wild-Type H9 cells, double staining anti-CD166-PE + ILT3.Fc-FITC
[4] = target: CD166 (activated leukocyte cell adhesion molecule, ALCAM) on human cells (human) (UniProt Q13740); assay: flow cytometry, H9 cells with CD166 knocked down by CD166 shRNA adeno-virus (Adeno-siCD166) for 7 days, double staining anti-CD166 PE + ILT3Fc-FITC
[5] = target: CD166 (activated leukocyte cell adhesion molecule, ALCAM) on human cells (human) (UniProt Q13740); assay: flow cytometry, CD4-gated T helper cells of a healthy donor (low or no ILT3L)
[6] = target: CD166 (activated leukocyte cell adhesion molecule, ALCAM) on human cells (human) (UniProt Q13740); assay: flow cytometry, CD3+ T cells, Control Treatment, cultured w/o ILT3Fc, stained with ILT3Fc-FITC
[7] = target: CD166 (activated leukocyte cell adhesion molecule, ALCAM) on human cells (human) (UniProt Q13740); assay: flow cytometry, CD166 KO H9 cells (CD166 gene knocked out: control cells without the target), double staining anti-CD166-PE + ILT3.Fc-FITC
[8] = target: CD166 (activated leukocyte cell adhesion molecule, ALCAM) on human cells (human) (UniProt Q13740); assay: cell-based or functional assay
[9] = target: CD166 (activated leukocyte cell adhesion molecule, ALCAM) on human cells (human) (UniProt Q13740); assay: flow cytometry, Jurkat cells nucleofected with control vector, double staining anti-CD166 APC + ILT3Fc-FITC
[10] = target: CD166 (activated leukocyte cell adhesion molecule, ALCAM) on human cells (human) (UniProt Q13740); assay: flow cytometry, Jurkat cells nucleofected with CD166 over-expression plasmid, double staining anti-CD166 APC + ILT3Fc-FITC
[11] = target: CD166 (activated leukocyte cell adhesion molecule, ALCAM) on human cells (human) (UniProt Q13740); assay: flow cytometry, CD3-gated T cells of a healthy donor (low or no ILT3L)
[12] = target: CD166 (activated leukocyte cell adhesion molecule, ALCAM) on human cells (human) (UniProt Q13740); assay: flow cytometry, H9 cells infected with control adeno-virus (Adeno-Control) for 7 days, double staining anti-CD166 PE + ILT3Fc-FITC
[13] = target: CD166 (activated leukocyte cell adhesion molecule, ALCAM) on human cells (human) (UniProt Q13740); assay: flow cytometry, ILT3Fc-FITC on control-virus infected H9 cells
[14] = target: CD166 (activated leukocyte cell adhesion molecule, ALCAM) on human cells (human) (UniProt Q13740); assay: flow cytometry, CD3+ T cells triggered with PWM (0.05ug/ml) w/o ILT3Fc, stained with ILT3Fc-FITC
[15] = target: CD166 (activated leukocyte cell adhesion molecule, ALCAM) on human cells (human) (UniProt Q13740); assay: flow cytometry, CD3+ T cells triggered with CD3/CD28 (5ug/ml, 1ug/ml) w/o ILT3Fc, stained with ILT3Fc-FITC
[16] = target: CD166 (activated leukocyte cell adhesion molecule, ALCAM) on human cells (human) (UniProt Q13740); assay: flow cytometry, CD3+ T cells triggered with CD3/CD28 (5ug/ml, 1ug/ml) in the presence of ILT3Fc (50 ug/mL), stained with ILT3Fc-FITC
[17] = target: CD166 (activated leukocyte cell adhesion molecule, ALCAM) on human cells (human) (UniProt Q13740); assay: flow cytometry, CD3+ T cells triggered with PWM (0.05ug/ml) in the presence of ILT3Fc (50 ug/mL), stained with ILT3Fc-FITC
[18] = target: CD166 (activated leukocyte cell adhesion molecule, ALCAM) on human cells (human) (UniProt Q13740); assay: flow cytometry, Jurkat cells pre-incubated with J4-81, then ILT3Fc-FITC
[19] = target: CD166 (activated leukocyte cell adhesion molecule, ALCAM) on human cells (human) (UniProt Q13740); assay: flow cytometry, Jurkat cells pre-incubated with CD6-Fc, then ILT3Fc-FITC
[20] = target: CD166 (activated leukocyte cell adhesion molecule, ALCAM) on human cells (human) (UniProt Q13740); assay: flow cytometry, Jurkat cells pre-incubated with CD166-Fc, then ILT3Fc-FITC

## ILT3Fc (water-soluble recombinant protein: extracellular domain of human ILT3 affixed to the Fc portion of an immunoglobulin) (from UniProt Q8NHJ6 22-259; P01857 104-330) (Fc fusion)
[1]
  % cells stained with ILT3Fc-FITC: 0.8%
[2]
  percent of cells binding ILT3Fc: < 20%
[3]
  % cells in lower left quadrant (CD166- / ILT3Fc-FITC-): 3.57%
  % cells in lower right quadrant (CD166- / ILT3Fc-FITC+): 0.03%
  % cells in upper left quadrant (CD166+ / ILT3Fc-FITC-): 22.3%
  % cells in upper right quadrant (CD166+ / ILT3Fc-FITC+): 74.1%
[4]
  % cells in lower left quadrant (CD166- / ILT3Fc-FITC-): 50%
  % cells in lower right quadrant (CD166- / ILT3Fc-FITC+): 5.8%
  % cells in upper left quadrant (CD166+ / ILT3Fc-FITC-): 26.7%
  % cells in upper right quadrant (CD166+ / ILT3Fc-FITC+): 14.5%
[5]
  percent ILT3Fc binding: 1%
[6]
  % cells stained with ILT3Fc-FITC: 1.08%
[7]
  % cells in lower left quadrant (CD166- / ILT3Fc-FITC-): 96.5%
  % cells in lower right quadrant (CD166- / ILT3Fc-FITC+): 2.94%
  % cells in upper left quadrant (CD166+ / ILT3Fc-FITC-): 0.1%
  % cells in upper right quadrant (CD166+ / ILT3Fc-FITC+): 0.43%
[8]
  inhibition of growth of tumor cell lines at 72 hours: 50 to 90%
[9]
  % cells in lower left quadrant (CD166- / ILT3Fc-FITC-): 30.6%
  % cells in lower right quadrant (CD166- / ILT3Fc-FITC+): 1.08%
  % cells in upper left quadrant (CD166+ / ILT3Fc-FITC-): 58%
  % cells in upper right quadrant (CD166+ / ILT3Fc-FITC+): 10.2%
[10]
  % cells in lower left quadrant (CD166- / ILT3Fc-FITC-): 13.4%
  % cells in lower right quadrant (CD166- / ILT3Fc-FITC+): 1.08%
  % cells in upper left quadrant (CD166+ / ILT3Fc-FITC-): 66.3%
  % cells in upper right quadrant (CD166+ / ILT3Fc-FITC+): 19.2%
[11]
  percent ILT3Fc binding: 12%
[12]
  % cells in lower left quadrant (CD166- / ILT3Fc-FITC-): 6.33%
  % cells in lower right quadrant (CD166- / ILT3Fc-FITC+): 0.15%
  % cells in upper left quadrant (CD166+ / ILT3Fc-FITC-): 47%
  % cells in upper right quadrant (CD166+ / ILT3Fc-FITC+): 46.5%
[13]
  percent of cells binding ILT3Fc: 46%
[14]
  % cells stained with ILT3Fc-FITC: 23.2%
[15]
  % cells stained with ILT3Fc-FITC: 26.9%
[16]
  % cells stained with ILT3Fc-FITC: 20.4%
[17]
  % cells stained with ILT3Fc-FITC: 15.2%

## anti-CD166 mAb J4-81 (antibody)
[18]
  percent inhibition of ILT3Fc-FITC binding: 28%

B1: human CD6-Fc (Fc fusion, UniProt P30203 25-398, looked up, not shown: a dimerising Fc or GST)
chain: DQLNTSSAESELWEPGERLPVRLTNGSSSCSGTVEVRLEASWEPACGALWDSRAAEAVCRALGCGGAEAASQLAPPTPELPPPPAAGNTSVAANATLAGAPALLCSGAEWRLCEVVEHACRSDGRRARVTCAENRALRLVDGGGACAGRVEMLEHGEWGSVCDDTWDLEDAHVVCRQLGCGWAVQALPGLHFTPGRGPIHRDQVNCSGAEAYLWDCPGLPGQHYCGHKEDAGAVCSEHQSWRLTGGADRCEGQVEVHFRGVWNTVCDSEWYPSEAKVLCQSLGCGTAVERPKGLPHSLSGRMYYSCNGEELTLSNCSWRFNNSNLCSQSLAARVLCSASRSLHNLSTPEVPASVQTVTIESSVTVKIENKESRE
[19]
  percent inhibition of ILT3Fc-FITC binding: 49%

B2: human CD166Fc (Fc fusion, UniProt Q13740 28-526, looked up, not shown: a dimerising Fc or GST)
chain: WYTVNSAYGDTIIIPCRLDVPQNLMFGKWKYEKPDGSPVFIAFRSSTKKSVQYDDVPEYKDRLNLSENYTLSISNARISDEKRFVCMLVTEDNVFEAPTIVKVFKQPSKPEIVSKALFLETEQLKKLGDCISEDSYPDGNITWYRNGKVLHPLEGAVVIIFKKEMDPVTQLYTMTSTLEYKTTKADIQMPFTCSVTYYGPSGQKTIHSEQAVFDIYYPTEQVTIQVLPPKNAIKEGDNITLKCLGNGNPPPEEFLFYLPGQPEGIRSSNTYTLTDVRRNATGDYKCSLIDKKSMIASTAITVHYLDLSLNPSGEVTRQIGDALPVSCTISASRNATVVWMKDNIRLRSSPSFSSLHYQDAGNYVCETALQEVEGLKKRESLTLIVEGKPQIKMTKKTDPSGLSKTIICHVEGFPKPAIQWTITGSGSVINQTEESPYINGRYYSKIIISPEENVTLTCTAENQLERTVNSLNVSAISIPEHDEADEISDENREKVNDQA
[20]
  percent inhibition of ILT3Fc-FITC binding: 30%

Reference: patent US20180207269A1
